Assays:
[1] = biological target: T1, subunit-a of the yeast mitochondrial F1Fo ATP synthase (S. cerevisiae, UniProt P00854 11-259); assay: cryo-EM structure; purified yeast F1Fo reconstituted in nanodiscs (POPC and cardiolipin, 12% by weight), incubated with BDQ (30 uM on ice 30 min, or 5 uM at room temperature 10 min); reconstruction focused on Fo at 4.2 A, whole F1Fo at 3.9 A; settings: both partners purified
T1 construct: ATP synthase subunit a (Fo sector), S. cerevisiae mitochondrial; The His6 tag of strain USY006 is on ATP2 (beta subunit), not on this chain; also called a-subunit
T1 sequence (looked up): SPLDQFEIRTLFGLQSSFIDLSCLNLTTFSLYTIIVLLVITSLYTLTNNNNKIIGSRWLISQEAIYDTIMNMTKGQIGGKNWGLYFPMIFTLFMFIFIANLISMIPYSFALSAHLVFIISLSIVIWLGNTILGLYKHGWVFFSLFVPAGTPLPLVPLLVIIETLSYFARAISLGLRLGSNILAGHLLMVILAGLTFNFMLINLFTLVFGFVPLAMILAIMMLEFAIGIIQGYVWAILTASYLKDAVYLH

[2] = biological target: the molecule itself; assay: as above

binding result [1]: binds
B1: subunit-c of the yeast mitochondrial F1Fo ATP synthase (c10-ring) (natural protein, S. cerevisiae, UniProt P61829 1-76, looked up)
chain: MQLVLAAKYIGAGISTIGLLGAGIGIAIVFAALINGVSRNPSIKDTVFPMAILGFALSEATGLFCLMVSFLLLFGV
notes: ATP synthase subunit c (subunit 9, Fo sector), S. cerevisiae mitochondrial; as modelled in PDB 6WTD (chains Q and R are two of the ten copies; initial model PDB 6CP7); also called c-subunit; c-ring; copies: 10
stoichiometry N [2]: 10
